From patent publication US20100111851A1 (UNIVERSITY OF TOKYO, published 2010)

Tests used:
[1] = target: T1, whole human PRG-3 with a C-terminal V5 tag, inducibly expressed on PRG-3/293T-Rex cells (human, UniProt Q8TBJ4 1-325); assay: flow cytometry, hybridoma supernatant on PRG-3-induced against non-induced 293 cells
T1 construct: Membrane protein with 6 transmembrane regions; also called PRG-3/293 cells; PRG3+/293 cells; not shown: V5 tag inserted at the C-terminus
T1 sequence: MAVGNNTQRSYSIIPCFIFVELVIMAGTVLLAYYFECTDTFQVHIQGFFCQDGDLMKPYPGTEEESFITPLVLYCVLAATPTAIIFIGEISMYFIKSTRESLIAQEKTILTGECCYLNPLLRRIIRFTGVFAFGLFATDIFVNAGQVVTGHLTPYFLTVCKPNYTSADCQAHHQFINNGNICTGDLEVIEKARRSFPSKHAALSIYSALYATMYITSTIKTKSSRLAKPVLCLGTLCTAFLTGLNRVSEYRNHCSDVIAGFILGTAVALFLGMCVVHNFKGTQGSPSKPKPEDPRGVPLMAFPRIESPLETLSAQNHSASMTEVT
Method: The cell line expressing human PRG-3 suspended in FACS buffer (2% FBS/PBS) was diluted to 1×10⁶ cells/mL using FACS buffer, and aliquoted at 50 μL/well into a Falcon 353910 round-bottom 96-well plate. Hybridoma culture supernatant diluted to a suitable concentration was added to the wells containing the cells and reacted for 60 min on ice. Next, the cells were rinsed once with FACS buffer. Goat F(ab′)₂ fragment anti-mouse IgG (H+L)-FITC (Beckman Coulter) was added to the wells containing the cells as a secondary antibody, and reacted for 30 min on ice. The supernatant was removed by centrifugation after the reaction, and the cells suspended in 100 μL of FACS buffer were subjected to flow cytometry. A FACS Calibur (Becton Dickinson) was used for the flow cytometry. A gate for the viable cell population was established with a forward scatter-side scatter dot blot, an FL1 histogram was made of the cells contained in the population, and binding activity thereof was evaluated.

[2] = target: T2, human PRG-3 (without tag) on cells (human, UniProt Q8TBJ4 1-325); assay: flow cytometry, mixture of the two antibodies on Ba/F3 cells transfected with pMCN-PRG-3
T2 construct: also called PRG-3 protein; PRG-3/BaF3
T2 sequence: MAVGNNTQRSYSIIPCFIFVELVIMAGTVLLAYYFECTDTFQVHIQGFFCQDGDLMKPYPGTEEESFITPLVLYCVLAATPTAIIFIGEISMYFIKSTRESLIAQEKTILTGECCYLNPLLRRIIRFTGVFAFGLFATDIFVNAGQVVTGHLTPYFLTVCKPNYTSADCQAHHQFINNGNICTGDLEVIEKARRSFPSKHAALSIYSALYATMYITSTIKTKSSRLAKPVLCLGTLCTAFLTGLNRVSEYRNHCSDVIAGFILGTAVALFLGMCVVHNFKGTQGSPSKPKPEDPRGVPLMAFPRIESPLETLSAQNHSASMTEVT
Method: A Ba/F3 cell transformant line was established by gene transfer of the pMCN-PRG-3 expression vector constructed in example 2 into Ba/F3 cells, which is a murine pro B cell line, by electroporation under conditions of 0.33 kV and 950 μF. The Ba/F3 cells are IL-3 dependent cells, and they were cultured in RPMI-1640/10% FBS/penicillin-streptomycin containing 1 ng/mL IL-3. The cells that underwent gene transfer were selected by RPMI-1640/10% FBS/penicillin-streptomycin containing IL-3 and 500 μg/mL Geneticin® (Invitrogen). Cells expressing PRG-3 from the Geneticin®-resistant lines were selected by flow cytometry. […] Lines O-A5, O-D3, and O-F5 were established as Ba/F3 cell lines expressing PRG-3 (FIG. 6). Additionally, line O-F5 was cloned by the limiting dilution method and the OF5-G8 line with a high level of expression was also obtained.

Binder | binding result [1] | binding result [2]
anti-PRG-3 monoclonal antibody 4F1 (antibody, mouse IgG2b, kappa, V domains shown, also called MR4F1) VH: QVQLQQPGAELVKPGASVKLSCKASGYTFTSYWMNWVKQRPGRGLEWIGKIHPSDSETHYNQKFKSKATLTVDKSSSTAYIQLNSLTSEDSAVYYCTRGYNNYLDYWGQGTTLTVSS VL: DIVLTQSPASLAVSLGQSVTISCRASESVEYYGTSLMQWYQQKPGQPPKLLIYGASNVESGVPARFSGSGSWTDFSLNIHPVEEDDIAIYFCQQSRKVPSTFGGGTKLEIKR | binds | binds
anti-PRG-3 monoclonal antibody 4F12 (antibody, mouse IgG2a, kappa, V domains shown, Tested as hybridoma culture supernatant and as protein G purified antibody; also called MR4F12) VH: QVQLQQPGAELVKPGASVKLSCKASGYTFTSYWMNWVKQRPGRGLEWIGKIHPSDSETHYNQKFKSKATLTVDKSSSTAYIQLSSLTSEDSAVYYCARGYSNYLDYWGQGTTLTVSS VL: DIVLTQSPASLAVSLGQRVTISCRASESVEYYGTSLMQWYQQKPGQPPKLLIYGASNVESGVPARFSGSGSGTDFSLNIHPVEEDDIAMYFCQQSRKVPSTFGGGTKLEIKR | binds | binds
